Test results as given in patent US20080019962A1 (DYAX CORP A MASSACHUSETTS, published 2008).
Changes are numbered by the printed parent chain. Blank lines part the entries; values can stand above or below the binder they belong to.

How the values were obtained:
Experiment in all cases: cell-based or functional assay
Trypsinogen-IV = target: T1, Trypsinogen-IV (UniProt P35030 81-304)
T1 sequence (looked up): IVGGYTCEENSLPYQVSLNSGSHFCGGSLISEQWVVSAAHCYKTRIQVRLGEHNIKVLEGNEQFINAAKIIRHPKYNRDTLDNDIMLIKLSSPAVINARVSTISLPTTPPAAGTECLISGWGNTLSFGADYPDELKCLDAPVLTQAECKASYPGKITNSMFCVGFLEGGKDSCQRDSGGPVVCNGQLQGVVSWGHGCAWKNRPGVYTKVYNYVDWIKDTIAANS

MTSP-10 = target: MTSP-10
Endotheliase-1 (ET1) = target: Endotheliase-1 (ET1)
MTSP-7 = target: MTSP-7
MTSP-1 = target: T2, MTSP-1 (UniProt Q9Y5Y6 615-855, limits assumed)
T2 sequence (looked up): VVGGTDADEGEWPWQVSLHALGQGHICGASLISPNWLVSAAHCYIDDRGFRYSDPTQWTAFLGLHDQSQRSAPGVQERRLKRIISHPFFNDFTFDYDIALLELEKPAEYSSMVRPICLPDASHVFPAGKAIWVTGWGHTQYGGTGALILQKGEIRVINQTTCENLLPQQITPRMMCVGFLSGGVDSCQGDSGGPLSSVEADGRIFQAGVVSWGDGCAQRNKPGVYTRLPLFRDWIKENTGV

MTSP-6 = target: MTSP-6

- activity against protease in selectivity screen (enzyme assay) (Trypsinogen-IV): < 5%
- activity against protease in selectivity screen (enzyme assay) (MTSP-10): < 5%
- activity against protease in selectivity screen (enzyme assay) (Endotheliase-1 (ET1)): < 5%
- activity against protease in selectivity screen (enzyme assay) (MTSP-7): < 5%
- activity against protease in selectivity screen (enzyme assay) (MTSP-1): < 5%
- activity against protease in selectivity screen (enzyme assay) (MTSP-6): < 5%
B1: D5 IgG1 antibody (Fab D5 reformatted) (antibody, V domains shown)
VH: EVQLLESGGGLVQPGGSLRLSCAASGFTFSRYDMHWVRQAPGKGLEWVSSISSSGGYTAYADSVKGRFTISRDNSKNTLYLQMNSLRAEDTAVYYCARGARGTSQGYWGQGTLVTVSS
VL: DIQMTQSPGTLSLSPGERGTLSCRASQFVSYSYLAWYQQKPGQAPRLLIYGASSRAKGIPDRFSGSGSGTDFTLTITRLEPEDFAVYYCQQYVPSVPWTFGQGTKVEVKR

- activity against protease in selectivity screen (enzyme assay) (Trypsinogen-IV): < 5%
- activity against protease in selectivity screen (enzyme assay) (MTSP-10): < 5%
- activity against protease in selectivity screen (enzyme assay) (Endotheliase-1 (ET1)): < 5%
- activity against protease in selectivity screen (enzyme assay) (MTSP-7): < 5%
- activity against protease in selectivity screen (enzyme assay) (MTSP-1): < 5%
- activity against protease in selectivity screen (enzyme assay) (MTSP-6): < 5%
B2: D2 IgG1 antibody (Fab D2 reformatted) (antibody, V domains shown)
VH: EVQLLESGGGLVQPGGSLRLSCAASGFTFSRYRMYWVRQAPGKGLEWVSSISPSGGDTRYADSVKGRFTISRDNSKNTLYLQMNSLRAEDTAVYYCARGGPRGNKYYFDYWGQGTLVTVSS
VL: DIQMTQSPSSLSASVGDRVTITCRASQTIDNYLNWYQQKPGKAPKLVVYAASTLQTRVPSRFSGSGSGTDFTLTIDSLKPEDFATYFCQQGFSNPWTFGQGTTVAMIR

- activity against protease in selectivity screen (enzyme assay) (Trypsinogen-IV): < 5%
- activity against protease in selectivity screen (enzyme assay) (MTSP-10): < 5%
- activity against protease in selectivity screen (enzyme assay) (Endotheliase-1 (ET1)): < 5%
- activity against protease in selectivity screen (enzyme assay) (MTSP-7): < 5%
- activity against protease in selectivity screen (enzyme assay) (MTSP-6): < 5%
B3: H10 IgG1 antibody (Fab H10 reformatted) (antibody, V domains shown)
VH: B2 VH
VL: not shown

- activity against protease in selectivity screen (enzyme assay) (Trypsinogen-IV): < 5%
- activity against protease in selectivity screen (enzyme assay) (MTSP-10): < 5%
- activity against protease in selectivity screen (enzyme assay) (Endotheliase-1 (ET1)): < 5%
- activity against protease in selectivity screen (enzyme assay) (MTSP-7): < 5%
- activity against protease in selectivity screen (enzyme assay) (MTSP-1): < 5%
- activity against protease in selectivity screen (enzyme assay) (MTSP-6): < 5%
B4: B5 IgG1 antibody (Fab B5 reformatted) (antibody, V domains shown)
VH: B2 VH
VL: SYELTQPPSVSVSLGQAANISCSGDRLGDKYTSWYQQQSGQSPVLVIYQDKKRPSGIPERFSGSSSGNTATLTISGAQAIDEAAYYCQAWATNVVFGAGTKLTVLG

- activity against protease in selectivity screen (enzyme assay) (Trypsinogen-IV): < 5%
- activity against protease in selectivity screen (enzyme assay) (MTSP-10): < 5%
- activity against protease in selectivity screen (enzyme assay) (Endotheliase-1 (ET1)): < 5%
- activity against protease in selectivity screen (enzyme assay) (MTSP-7): < 5%
- activity against protease in selectivity screen (enzyme assay) (MTSP-1): < 5%
- activity against protease in selectivity screen (enzyme assay) (MTSP-6): < 5%
B5: A2 IgG1 antibody (Fab A2 reformatted) (antibody, V domains shown)
VH: B2 VH
VL: DIQMTQSPSFLSAFVGDRVTITCRASQDIRSDLAWYQQTPGKAPKLLIYAASTLKDGAPSRFSGSGSGTEFTLTISSLHPEDLATYYCQHLNGHPAFGPGTKVNIQR

- activity against protease in selectivity screen (enzyme assay) (Trypsinogen-IV): < 5%
- activity against protease in selectivity screen (enzyme assay) (MTSP-10): < 5%
- activity against protease in selectivity screen (enzyme assay) (Endotheliase-1 (ET1)): < 5%
- activity against protease in selectivity screen (enzyme assay) (MTSP-7): < 5%
- activity against protease in selectivity screen (enzyme assay) (MTSP-1): < 5%
- activity against protease in selectivity screen (enzyme assay) (MTSP-6): < 5%
B6: C9 IgG1 antibody (Fab C9 reformatted) (antibody, V domains shown)
VH: B2 VH with R33P, Y35F, S50Y, P53S, D57F, R59G
VL: QSVLTQPASVSGSPGQSITISCTGTSSDVGHYNYVSWYQQHPGKAPKVMIYDVSSRPSGVSDRFSGSKSGNTASLAISGLQAEDEADYYCSSYTSGDTLYVFGTGTKVTVLG

- activity against protease in selectivity screen (enzyme assay) (Trypsinogen-IV): < 5%
- activity against protease in selectivity screen (enzyme assay) (MTSP-10): < 5%
- activity against protease in selectivity screen (enzyme assay) (Endotheliase-1 (ET1)): < 5%
- activity against protease in selectivity screen (enzyme assay) (MTSP-7): < 5%
- activity against protease in selectivity screen (enzyme assay) (MTSP-6): < 5%
B7: F8 IgG1 antibody (Fab F8 reformatted) (antibody, V domains shown)
VH: B2 VH with R33H, Y35W, S50G, P53S, G55R, D57I, R59K
VL: DIQMTQSPGTLSLSPGERVTLSCRASQSVTSSDLAWYQQKPGQAPRLLISGASSRATGIPDRFSGSGSGTDFTLTISRLEPEDFAVYYCQQYGNSPGTFGQGTKVEIKR
